In patent US20230346885A1 (published 2023):
Residue numbers refer to the chain shown, from its start.

How the values were obtained:
Experiment in all cases: binding, other
NR0B1 peptide on HLA [1] = molecular target: T1, NR0B1 peptide on HLA (human)
T1 peptide: GLLKTLRFV

MAGEC1 peptide on HLA [2] = molecular target: T2, MAGEC1 peptide on HLA (human)
T2 peptide: FLAMLKNTV

PAEP peptide on HLA = molecular target: T3, PAEP peptide on HLA (human)
T3 peptide: AMATNNISL

NR0B1 peptide on HLA [3] = molecular target: T4, NR0B1 peptide on HLA (human)
T4 peptide: GLPGGRPVAL

MAGEC1 peptide on HLA [4] = molecular target: T5, MAGEC1 peptide on HLA (human)
T5 peptide: ILQSSPESA

PAGE2 peptide on HLA = molecular target: T6, PAGE2 peptide on HLA (human)
T6 peptide: IMPTFDLTKV

NPSR1 peptide on HLA = molecular target: T7, NPSR1 peptide on HLA (human)
T7 peptide: VIIQNLPAL

KLK4 peptide on HLA = molecular target: T8, KLK4 peptide on HLA (human)
T8 peptide: FQNSYTIGL

MAGEB2 peptide on HLA = molecular target: T9, MAGEB2 peptide on HLA (human)
T9 peptide: KVLEFLAKV

B1: TCR of SEQ ID NOs 451 and 452 (TCR, V domains shown)
Valpha: KQEVTQIPAALSVPEGENLVLNCSFTDSAIYNLQWFRQDPGKGLTSLLLIQSSQREQTSGRLNASLDKSSGRSTLYIAASQPGDSATYLCAVGTDSWGKFQFGAGTQVVVTP
Vbeta: NAGVTQTPKFQVLKTGQSMTLQCAQDMNHEYMSWYRQDPGMGLRLIHYSVGAGITDQGEVPNGYNVSRSTTEDFPLRLLSAAPSQTSVYFCASSYSVDSPLHFGNGTRLSVL
B1: recognises (NR0B1 peptide on HLA [1]).

B2: TCR of SEQ ID NOs 433 and 434 (TCR, V domains shown)
Valpha: KQEVTQIPAALSVPEGENLVLNCSFTDSAIYNLQWFRQDPGKGLTSLLLIQSSQREQTSGRLNASLDKSSGRSTLYIAASQPGDSATYLCAVESGNQFYFGTGTSLTVIP
Vbeta: NAGVTQTPKFQVLKTGQSMTLQCAQDMNHEYMSWYRQDPGMGLRLIHYSVGVGITDQGEVPNGYNVSRSTTEDFPLRLLSAAPSQTSVYFCASSFGQGSSPLHFGNGTRLTVT
B2: recognises (MAGEC1 peptide on HLA [2]).

B3: TCR of SEQ ID NOs 465 and 466 (TCR, V domains shown)
Valpha: B2 Valpha with E93R, G95Y
Vbeta: B2 Vbeta with V52A, F95P, Q97G, G98P, S100T, P101E, L102A, H103F, N106Q, T113V
B3: recognises (PAEP peptide on HLA).

B4: TCR of SEQ ID NOs 455 and 456 (TCR, V domains shown)
Valpha: B2 Valpha with E93R, S94G, G95Y, N96Q, Q97K, F98V, Y99T, S105K, T107Q
Vbeta: NAGVTQTPKFQVLKTGQSMTLQCAQDMNHEYMSWYRQDPGMGLRLIHYSVGAGITDQGEVPNGYNVSRSTTEDFPLRLLSAAPSQTSVYFCATSGLNTEAFFGQGTRLTVV
B4: recognises (NR0B1 peptide on HLA [3]).

B5: TCR of SEQ ID NOs 425 and 426 (TCR, V domains shown)
Valpha: KQEVTQIPAALSVPEGENLVLNCSFTDSAIYNLQWFRQDPGKGLTSLLLIQSSQREQTSGRLNASLDKSSGRSTLYIAASQPGDSATYLCAVRDDYKLSFGAGTTVTVRA
Vbeta: NAGVTQTPKFRVLKTGQSMTLLCAQDMNHEYMYWYRQDPGMGLRLIHYSVGEGTTAKGEVPDGYNVSRLKKQNFLLGLESAAPSQTSVYFCASSYGPGQIYGYTFGSGTRLTVV
B5: recognises (MAGEC1 peptide on HLA [4]).

B6: TCR of SEQ ID NOs 427 and 428 (TCR, V domains shown)
Valpha: B5 Valpha with D94N
Vbeta: B5 Vbeta with S107P, V114L
B6: recognises (MAGEC1 peptide on HLA [4]).

B7: TCR of SEQ ID NOs 431 and 432 (TCR, V domains shown)
Valpha: B2 Valpha with E93G, S94G, G95Y, Q97K, F98L, Y99I, T102A, S105R, T107A, I109H
Vbeta: NAGVTQTPKFQVLKTGQSMTLQCAQDMNHNSMYWYRQDPGMGLRLIYYSASEGTTDKGEVPNGYNVSRSTTEDFPLRLLSAAPSQTSVYFCASSLDPLAEAFFGQGTRLTVV
B7: recognises (MAGEC1 peptide on HLA [2]).

B8: TCR of SEQ ID NOs 461 and 462 (TCR, V domains shown)
Valpha: KQEVTQIPAALSVPEGENLVLNCSFTDSAIYNLQWFRQDPGKGLTSLLLIQSSQREQTSGRLNASLDKSSGRSTLYIAASQPGDSATYLCAVSRSWGKFQFGAGTQVVVTP
Vbeta: NAGVTQTPKFQVLKTGQSMTLQCAQDMNHEYMSWYRQDPGMGLRLIHYSVGAGITDQGEVPNGYNVSRLNKREFSLRLESAAPSQTSVYFCASSLTGGAEYGYTFGSGTRLTVV
B8: recognises (PAEP peptide on HLA).

B9: TCR of SEQ ID NOs 435 and 436 (TCR, V domains shown)
Valpha: KQEVTQIPAALSVPEGENLVLNCSFTDSAIYNLQWFRQDPGKGLTSLLLIQSSQREQTSGRLNASLDKSSGRSTLYIAASQPGDSATYLCAALSYNTDKLIFGTGTRLQVFP
Vbeta: NAGVTQTPKFRVLKTGQSMTLLCAQDMNHEYMYWYRQDPGMGLRLIHYSVGEGTTAKGEVPDGYNVSRLKKQNFLLGLESAAPSQTSVYFCASKDIPYTEAFFGQGTRLTVV
B9: recognises (MAGEC1 peptide on HLA [2]).

B10: TCR of SEQ ID NOs 485 and 486 (TCR, V domains shown)
Valpha: KQEVTQIPAALSVPEGENLVLNCSFTDSAIYNLQWFRQDPGKGLTSLLLIQSSQREQTSGRLNASLDKSSGRSTLYIAASQPGDSATYLCAVRLRGSARQLTFGSGTQLTVLP
Vbeta: NAGVTQTPKFRVLKTGQSMTLLCAQDMNHEYMYWYRQDPGMGLRLIHYSVGEGTTAKGEVPDGYNVSRLKKQNFLLGLESAAPSQTSVYFCASSYSIEFTEAFFGQGTRLTVV
B10: recognises (PAGE2 peptide on HLA).

B11: TCR of SEQ ID NOs 443 and 444 (TCR, V domains shown)
Valpha: QKEVEQNSGPLSVPEGAIASLNCTYSDRGSQSFFWYRQYSGKSPELIMSIYSNGDKEDGRFTAQLNKASQYVSLLIRDSQPSDSATYLCAVNDSWGKLQFGAGTQVVVTP
Vbeta: DGGITQSPKYLFRKEGQNVTLSCEQNLNHDAMYWYRQDPGQGLRLIYYSQIVNDFQKGDIAEGYSVSREKKESFPLTVTSAQKNPTAFYLCASSMVPGFSEQFFGPGTRLTVL
B11: recognises (NPSR1 peptide on HLA).

B12: TCR of SEQ ID NOs 447 and 448 (TCR, V domains shown)
Valpha: B11 Valpha with N92S, D93A, S94A, W95G, G96N, Q99T, A102G, Q105R, V107L, T109K
Vbeta: NAGVTQTPKFRILKIGQSMTLQCTQDMNHNYMYWYRQDPGMGLKLIYYSAGAGITDKGEVPNGYNVSRSTTEDFPLRLELAAPSQTSVYFCASSYFGEQYFGPGTRLTVT
B12: recognises (NPSR1 peptide on HLA).

B13: TCR of SEQ ID NOs 411 and 412 (TCR, V domains shown)
Valpha: KQEVTQIPAALSVPEGENLVLNCSFTDSAIYNLQWFRQDPGKGLTSLLLIQSSQREQTSGRLNASLDKSSGRSTLYIAASQPGDSATYLCAVSGGSYIPTFGRGTSLIVHP
Vbeta: NAGVTQTPKFRVLKTGQSMTLLCAQDMNHEYMYWYRQDPGMGLRLIHYSVGEGTTDKGEVPDGYNVSRSTTEDFPLRLLSAAPSQTSVYFCASRKAGYGYTFGSGTRLTVV
B13: recognises (KLK4 peptide on HLA).

B14: TCR of SEQ ID NOs 463 and 464 (TCR, V domains shown)
Valpha: B13 Valpha with S93Q, Y97E, I98K, P99L, T100V, R103K, S106K, I108T, H110N
Vbeta: NAGVTQTPKFQVLKTGQSMTLQCAQDMNHNSMYWYRQDPGMGLRLIYYSASEGTTDKGEVPNGYNVSRLNKREFSLRLESAAPSQTSVYFCASSEEWSYGYTFGSGTRLTVV
B14: recognises (PAEP peptide on HLA).

B15: TCR of SEQ ID NOs 419 and 420 (TCR, V domains shown)
Valpha: KQEVTQIPAALSVPEGENLVLNCSFTDSAIYNLQWFRQDPGKGLTSLLLIQSSQREQTSGRLNASLDKSSGRSTLYIAASQPGDSATYLCAVSGGTTDSWGKLQFGAGTQVVVTP
Vbeta: NAGVTQTPKFQVLKTGQSMTLQCAQDMNHEYMSWYRQDPGMGLRLIHYSVGAGITDQGEVPNGYNVSRSTTEDFPLRLLSAAPSQTSVYFCASSFTPYEGYTFGSGTRLTVV
B15: recognises (MAGEB2 peptide on HLA).

B16: TCR of SEQ ID NOs 459 and 460 (TCR, V domains shown)
Valpha: KQEVTQIPAALSVPEGENLVLNCSFTDSAIYNLQWFRQDPGKGLTSLLLIQSSQREQTSGRLNASLDKSSGRSTLYIAASQPGDSATYLCAASGYSTLTFGKGTMLLVSP
Vbeta: B15 Vbeta with S94R, F95L, T96G, P97Q, Y98F, E99G, G100Q, Y101A, T102F, S105Q
B16: recognises (NR0B1 peptide on HLA [3]).

B17: TCR of SEQ ID NOs 423 and 424 (TCR, V domains shown)
Valpha: B15 Valpha with T96A
Vbeta: B15 Vbeta with F95Y, T96S, Y98W, E99T, G100E, Y101A, T102F, S105Q
B17: recognises (MAGEB2 peptide on HLA).

B18: TCR of SEQ ID NOs 453 and 454 (TCR, V domains shown)
Valpha: B1 Valpha
Vbeta: B15 Vbeta with T96S, Y98N, E99T, G100E, Y101A, T102F, S105Q
B18: recognises (NR0B1 peptide on HLA [1]).

B19: TCR of SEQ ID NOs 445 and 446 (TCR, V domains shown)
Valpha: KQEVTQIPAALSVPEGENLVLNCSFTDSAIYNLQWFRQDPGKGLTSLLLIQSSQREQTSGRLNASLDKSSGRSTLYIAASQPGDSATYLCAVSPVTSYDKVIFGPGTSLSVIP
Vbeta: NAGVTQTPKFRVLKTGQSMTLLCAQDMNHEYMYWYRQDPGMGLRLIYYSASEGTTDKGEVPNGYNVSRLNKREFSLRLESAAPSQTSVYFCASSYSWFGDGTEAFFGQGTRLTVV
B19: recognises (NPSR1 peptide on HLA).

B20: TCR of SEQ ID NOs 449 and 450 (TCR, V domains shown)
Valpha: KQEVTQIPAALSVPEGENLVLNCSFTDSAIYNLQWFRQDPGKGLTSLLLIQSSQREQTSGRLNASLDKSSGRSTLYIAASQPGDSATYLCAVRPGDSWGKLQFGAGTQVVVTP
Vbeta: B4 Vbeta with R44K, H47Y, Q57K, T93S, G95S, L96P, N97V, T98G, E99T
B20: recognises (NR0B1 peptide on HLA [1]).

B21: TCR of SEQ ID NOs 457 and 458 (TCR, V domains shown)
Valpha: B16 Valpha with A92V
Vbeta: NAGVTQTPKFRVLKTGQSMTLLCAQDMNHEYMYWYRQDPGMGLRLIHYSVGEGTTAKGEVPDGYNVSRLKKQNFLLGLESAAPSQTSVYFCASTGGGPPLNTEAFFGQGTRLTVV
B21: recognises (NR0B1 peptide on HLA [3]).

B22: TCR of SEQ ID NOs 429 and 430 (TCR, V domains shown)
Valpha: KQEVTQIPAALSVPEGENLVLNCSFTDSAIYNLQWFRQDPGKGLTSLLLIQSSQREQTSGRLNASLDKSSGRSTLYIAASQPGDSATYLCAVRPFSGGYNKLIFGAGTRLAVHP
Vbeta: NAGVTQTPKFQVLKTGQSMTLQCTQDMNHNYMYWYRQDPGMGLKLIYYSVGAGITDQGEVPNGYNVSRSTTEDFPLRLLSAAPSQTSVYFCASSPEYGYYEQYFGPGTRLTVT
B22: recognises (MAGEC1 peptide on HLA [4]).

B23: TCR of SEQ ID NOs 421 and 422 (TCR, V domains shown)
Valpha: KQEVTQIPAALSVPEGENLVLNCSFTDSAIYNLQWFRQDPGKGLTSLLLIQSSQREQTSGRLNASLDKSSGRSTLYIAASQPGDSATYLCAVESDDYKLSFGAGTTVTVRA
Vbeta: NAGVTQTPKFQVLKTGQSMTLQCAQDMNHNSMYWYRQDPGMGLRLIYYSASEGTTDKGEVPNGYNVSRLNKREFSLRLESAAPSQTSVYFCASSEALGGVTDTQYFGPGTRLTVL
B23: recognises (MAGEB2 peptide on HLA).
